# Data as given in article PMC8531669, “Quantitative proteomics identifies the universally conserved ATPase Ola1p as a positive regulator of heat shock response in Saccharomyces cerevisiae” (The Journal of Biological Chemistry, 2021).
# Target: the molecule itself
# Assay: light scattering coupled to nanoDSF; Ola1p (4 μM in Fig. 3G) in 20 mM PIPES pH 7.0, 100 mM KCl, 1 mM TCEP; temperature ramp 0.5 °C/min from 20 °C to 70 °C; read between 38 and 42 °C
protein,measurement,value
"Ola1p (natural protein, S. cerevisiae, UniProt P38219 1-394, looked up, Ola1p (Obg-like ATPase 1), S. cerevisiae, systematic name Ybr025c; The methods say that the MBP tag was cleaved with Precision protease; also called Ybr025c; MBP-Ola1p (before cleavage); source: insect cells (baculovirus expression system), purified (amylose resin, size-exclusion chromatography); not shown: MBP, N-terminal, cleaved) MPPKKQVEEKKVLLGRPGNNLKAGIVGLANVGKSTFFQAITRCPLGNPANYPFATIDPEEARVIVPSPRFDKLCEIYKKTASEVPAHLTVYDIAGLTKGASAGEGLGNAFLSHIRSVDSIYQVVRCFDDAEIIHVEGDVDPVRDLEIINQELRLKDIEFAQKALEGAEKIAKRGGQSLEVKQKKEEMDLITKIIKLLESGQRVANHSWTSKEVEIINSMFLLTAKPCIYLINLSERDYIRKKNKHLLRIKEWVDKYSPGDLIIPFSVSLEERLSHMSPEDAEEELKKLQTISALPKIITTMRQKLDLISFFTCGPDEVREWTIRRGTKAPQAAGVIHNDLMNTFILAQVMKCEDVFEYKDDSAIKAAGKLMQKGKDYVVEDGDIIYFRAGAGKN",binding result,binds
